Experimental findings from the supplement of paper PMC12338614 are described below.

± gives the uncertainty stated by the source.

Sequences and labels used below:
B1: library; numbered along this chain (parent)
chain: MEVVDPQQLGMFTEGELMSVGMDTFIHRIDSTEVIYQPRRKRAKLIGKYLMGDLLGEGSYGKVKEVLDSETLCRRAVKILKKKKLRRIPNGEANVKKEIQLLRRLRHKNVIQLVDVLYNEEKQKMYMVMEYCVCGMQEMLDSVPEKRFPVCQAHGYFCQLIDGLEYLHSQGIVHKDIKPGNLLLTTGGTLKISDLGVAEALHPFAADDTCRTSQGSPAFQPPEIANGLDTFSGFKVDIWSAGVTLYNITTGLYPFEGDNIYKLFENIGKGSYAIPGDCGPPLSDLLKGMLEYEPAKRFSIRQIRQHSWFRKKHPPAEAPVPIPPSPDTKDRWRSMTVVPYLEDLHGADEDEDLFDIEDDIIYTQDFTVPGQVPEEEASHNGQRRGLPKAVCMNGTEAAQLSTKSRAEGRAPNPARKACSASSKIRRLSACKQQ

The variants in this data set derive from B1. Description: STK11 functional score (HeLa growth suppression), rescaled enrichment; synonymous median = 1, nonsense median = 0 (normalised score). Particulars: with HeLa; variant type: missense. The gist of the method: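 The functional score takes the post/pre-selection log ratio, corrects it to wild type, rescales it to synonymous and nonsense medians, and merges it over codons and replicate transfections, with error from bootstrapping. Counts came from tiled gDNA amplicons sequenced on NextSeq (~2 million reads per tile). The libraries were POPCode codon-randomised, codon-optimised STK11 integrated by Bxb1 at an AAVS1 landing pad in HeLa, three regions with three transfections each.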
For MEVVDPQQLGMFTEGELMSVGMDTFIHRIDSTEVIYQPRRKRAKLIGKYLMGDLLGEGSYGKVKEVLDSETLCRRAVKILKKKKLRRIPNGEANVKKEIQLLRRLRHKNVIQLVDVLYNEEKQKMYMVMEYCVCGMQEMLDSVPEKRFPVCQAHGYFCQLIDGLEYLHSQGIVHKDIKPGNLLLTTGGTLKISDLGVAEALHPFAADDTCRTSQGSPAFQPPEIANGLDTFSGFKVDIWSAGVTLYNITTGLYPFEGDNIYKLFENIGKGSYAIPGDCGPPLSDLLKGMLEYEPAKRLSIRQIRQHSWFRKKHPPAEAPVPIPPSPDTKDRWRSMTVVPYLEDLHGADEDEDLFDIEDDIIYTQDFTVPGQVPEEEASHNGQRRGLPKAVCMNGTEAAQLSTKSRAEGRAPNPARKACSASSKIRRLSACKQQ [F298L], the STK11 functional score turned out to be 0.608 ± 0.15.

Take MEVVDPQQLGMFTEGELMSVGMDTFIHRIDSTEVIYQPRRKRAKLIGKYLMGDLLGEGSYGKVKEVLDSETLCRRAVKILKKKKLRRIPNGEANVKKEIQLLRRLRHKNVIQLVDVLYNEEKQKMYMVMEYCVCGMQEMLDSVPEKRFPVCQAHGYFCQLIDGLEYLHSQGIVHKDIKPGNLLLTTGGTLKISDLGVAEALHPFAADDTCRTSQGSPAFQPPEIANGLDTFSGFKVDIWSAGVTLYNITTGLYPFEGDNIYKLFENIGKGSYAIPGDCGPPLSDLLKGMLEYEPAKRWSIRQIRQHSWFRKKHPPAEAPVPIPPSPDTKDRWRSMTVVPYLEDLHGADEDEDLFDIEDDIIYTQDFTVPGQVPEEEASHNGQRRGLPKAVCMNGTEAAQLSTKSRAEGRAPNPARKACSASSKIRRLSACKQQ [F298W]: the STK11 functional score amounted to 0.876 ± 0.092.

With MEVVDPQQLGMFTEGELMSVGMDTFIHRIDSTEVIYQPRRKRAKLIGKYLMGDLLGEGSYGKVKEVLDSETLCRRAVKILKKKKLRRIPNGEANVKKEIQLLRRLRHKNVIQLVDVLYNEEKQKMYMVMEYCVCGMQEMLDSVPEKRFPVCQAHGYFCQLIDGLEYLHSQGIVHKDIKPGNLLLTTGGTLKISDLGVAEALHPFAADDTCRTSQGSPAFQPPEIANGLDTFSGFKVDIWSAGVTLYNITTGLYPFEGDNIYKLFENIGKGSYAIPGDCGPPLSDLLKGMLEYEPAKRDSIRQIRQHSWFRKKHPPAEAPVPIPPSPDTKDRWRSMTVVPYLEDLHGADEDEDLFDIEDDIIYTQDFTVPGQVPEEEASHNGQRRGLPKAVCMNGTEAAQLSTKSRAEGRAPNPARKACSASSKIRRLSACKQQ [F298D], the STK11 functional score was 1.48 ± 0.12.

For MEVVDPQQLGMFTEGELMSVGMDTFIHRIDSTEVIYQPRRKRAKLIGKYLMGDLLGEGSYGKVKEVLDSETLCRRAVKILKKKKLRRIPNGEANVKKEIQLLRRLRHKNVIQLVDVLYNEEKQKMYMVMEYCVCGMQEMLDSVPEKRFPVCQAHGYFCQLIDGLEYLHSQGIVHKDIKPGNLLLTTGGTLKISDLGVAEALHPFAADDTCRTSQGSPAFQPPEIANGLDTFSGFKVDIWSAGVTLYNITTGLYPFEGDNIYKLFENIGKGSYAIPGDCGPPLSDLLKGMLEYEPAKRSSIRQIRQHSWFRKKHPPAEAPVPIPPSPDTKDRWRSMTVVPYLEDLHGADEDEDLFDIEDDIIYTQDFTVPGQVPEEEASHNGQRRGLPKAVCMNGTEAAQLSTKSRAEGRAPNPARKACSASSKIRRLSACKQQ [F298S], the STK11 functional score worked out at 0.975 ± 0.27.

With MEVVDPQQLGMFTEGELMSVGMDTFIHRIDSTEVIYQPRRKRAKLIGKYLMGDLLGEGSYGKVKEVLDSETLCRRAVKILKKKKLRRIPNGEANVKKEIQLLRRLRHKNVIQLVDVLYNEEKQKMYMVMEYCVCGMQEMLDSVPEKRFPVCQAHGYFCQLIDGLEYLHSQGIVHKDIKPGNLLLTTGGTLKISDLGVAEALHPFAADDTCRTSQGSPAFQPPEIANGLDTFSGFKVDIWSAGVTLYNITTGLYPFEGDNIYKLFENIGKGSYAIPGDCGPPLSDLLKGMLEYEPAKRGSIRQIRQHSWFRKKHPPAEAPVPIPPSPDTKDRWRSMTVVPYLEDLHGADEDEDLFDIEDDIIYTQDFTVPGQVPEEEASHNGQRRGLPKAVCMNGTEAAQLSTKSRAEGRAPNPARKACSASSKIRRLSACKQQ [F298G], the STK11 functional score is -0.228 ± 0.09.

Regarding MEVVDPQQLGMFTEGELMSVGMDTFIHRIDSTEVIYQPRRKRAKLIGKYLMGDLLGEGSYGKVKEVLDSETLCRRAVKILKKKKLRRIPNGEANVKKEIQLLRRLRHKNVIQLVDVLYNEEKQKMYMVMEYCVCGMQEMLDSVPEKRFPVCQAHGYFCQLIDGLEYLHSQGIVHKDIKPGNLLLTTGGTLKISDLGVAEALHPFAADDTCRTSQGSPAFQPPEIANGLDTFSGFKVDIWSAGVTLYNITTGLYPFEGDNIYKLFENIGKGSYAIPGDCGPPLSDLLKGMLEYEPAKRASIRQIRQHSWFRKKHPPAEAPVPIPPSPDTKDRWRSMTVVPYLEDLHGADEDEDLFDIEDDIIYTQDFTVPGQVPEEEASHNGQRRGLPKAVCMNGTEAAQLSTKSRAEGRAPNPARKACSASSKIRRLSACKQQ [F298A], the STK11 functional score stood at 1.55 ± 0.15.

For MEVVDPQQLGMFTEGELMSVGMDTFIHRIDSTEVIYQPRRKRAKLIGKYLMGDLLGEGSYGKVKEVLDSETLCRRAVKILKKKKLRRIPNGEANVKKEIQLLRRLRHKNVIQLVDVLYNEEKQKMYMVMEYCVCGMQEMLDSVPEKRFPVCQAHGYFCQLIDGLEYLHSQGIVHKDIKPGNLLLTTGGTLKISDLGVAEALHPFAADDTCRTSQGSPAFQPPEIANGLDTFSGFKVDIWSAGVTLYNITTGLYPFEGDNIYKLFENIGKGSYAIPGDCGPPLSDLLKGMLEYEPAKRISIRQIRQHSWFRKKHPPAEAPVPIPPSPDTKDRWRSMTVVPYLEDLHGADEDEDLFDIEDDIIYTQDFTVPGQVPEEEASHNGQRRGLPKAVCMNGTEAAQLSTKSRAEGRAPNPARKACSASSKIRRLSACKQQ [F298I], the STK11 functional score was found to be 1.35 ± 0.61.

With MEVVDPQQLGMFTEGELMSVGMDTFIHRIDSTEVIYQPRRKRAKLIGKYLMGDLLGEGSYGKVKEVLDSETLCRRAVKILKKKKLRRIPNGEANVKKEIQLLRRLRHKNVIQLVDVLYNEEKQKMYMVMEYCVCGMQEMLDSVPEKRFPVCQAHGYFCQLIDGLEYLHSQGIVHKDIKPGNLLLTTGGTLKISDLGVAEALHPFAADDTCRTSQGSPAFQPPEIANGLDTFSGFKVDIWSAGVTLYNITTGLYPFEGDNIYKLFENIGKGSYAIPGDCGPPLSDLLKGMLEYEPAKRESIRQIRQHSWFRKKHPPAEAPVPIPPSPDTKDRWRSMTVVPYLEDLHGADEDEDLFDIEDDIIYTQDFTVPGQVPEEEASHNGQRRGLPKAVCMNGTEAAQLSTKSRAEGRAPNPARKACSASSKIRRLSACKQQ [F298E], the STK11 functional score was -0.101 ± 0.11.

Regarding MEVVDPQQLGMFTEGELMSVGMDTFIHRIDSTEVIYQPRRKRAKLIGKYLMGDLLGEGSYGKVKEVLDSETLCRRAVKILKKKKLRRIPNGEANVKKEIQLLRRLRHKNVIQLVDVLYNEEKQKMYMVMEYCVCGMQEMLDSVPEKRFPVCQAHGYFCQLIDGLEYLHSQGIVHKDIKPGNLLLTTGGTLKISDLGVAEALHPFAADDTCRTSQGSPAFQPPEIANGLDTFSGFKVDIWSAGVTLYNITTGLYPFEGDNIYKLFENIGKGSYAIPGDCGPPLSDLLKGMLEYEPAKRPSIRQIRQHSWFRKKHPPAEAPVPIPPSPDTKDRWRSMTVVPYLEDLHGADEDEDLFDIEDDIIYTQDFTVPGQVPEEEASHNGQRRGLPKAVCMNGTEAAQLSTKSRAEGRAPNPARKACSASSKIRRLSACKQQ [F298P], the STK11 functional score was determined as 1.16 ± 0.26.

Consider MEVVDPQQLGMFTEGELMSVGMDTFIHRIDSTEVIYQPRRKRAKLIGKYLMGDLLGEGSYGKVKEVLDSETLCRRAVKILKKKKLRRIPNGEANVKKEIQLLRRLRHKNVIQLVDVLYNEEKQKMYMVMEYCVCGMQEMLDSVPEKRFPVCQAHGYFCQLIDGLEYLHSQGIVHKDIKPGNLLLTTGGTLKISDLGVAEALHPFAADDTCRTSQGSPAFQPPEIANGLDTFSGFKVDIWSAGVTLYNITTGLYPFEGDNIYKLFENIGKGSYAIPGDCGPPLSDLLKGMLEYEPAKRRSIRQIRQHSWFRKKHPPAEAPVPIPPSPDTKDRWRSMTVVPYLEDLHGADEDEDLFDIEDDIIYTQDFTVPGQVPEEEASHNGQRRGLPKAVCMNGTEAAQLSTKSRAEGRAPNPARKACSASSKIRRLSACKQQ [F298R], for which the STK11 functional score came out at 0.428 ± 0.25.

As to MEVVDPQQLGMFTEGELMSVGMDTFIHRIDSTEVIYQPRRKRAKLIGKYLMGDLLGEGSYGKVKEVLDSETLCRRAVKILKKKKLRRIPNGEANVKKEIQLLRRLRHKNVIQLVDVLYNEEKQKMYMVMEYCVCGMQEMLDSVPEKRFPVCQAHGYFCQLIDGLEYLHSQGIVHKDIKPGNLLLTTGGTLKISDLGVAEALHPFAADDTCRTSQGSPAFQPPEIANGLDTFSGFKVDIWSAGVTLYNITTGLYPFEGDNIYKLFENIGKGSYAIPGDCGPPLSDLLKGMLEYEPAKRVSIRQIRQHSWFRKKHPPAEAPVPIPPSPDTKDRWRSMTVVPYLEDLHGADEDEDLFDIEDDIIYTQDFTVPGQVPEEEASHNGQRRGLPKAVCMNGTEAAQLSTKSRAEGRAPNPARKACSASSKIRRLSACKQQ [F298V], the STK11 functional score came to 0.839 ± 0.14.

Regarding MEVVDPQQLGMFTEGELMSVGMDTFIHRIDSTEVIYQPRRKRAKLIGKYLMGDLLGEGSYGKVKEVLDSETLCRRAVKILKKKKLRRIPNGEANVKKEIQLLRRLRHKNVIQLVDVLYNEEKQKMYMVMEYCVCGMQEMLDSVPEKRFPVCQAHGYFCQLIDGLEYLHSQGIVHKDIKPGNLLLTTGGTLKISDLGVAEALHPFAADDTCRTSQGSPAFQPPEIANGLDTFSGFKVDIWSAGVTLYNITTGLYPFEGDNIYKLFENIGKGSYAIPGDCGPPLSDLLKGMLEYEPAKWFSIRQIRQHSWFRKKHPPAEAPVPIPPSPDTKDRWRSMTVVPYLEDLHGADEDEDLFDIEDDIIYTQDFTVPGQVPEEEASHNGQRRGLPKAVCMNGTEAAQLSTKSRAEGRAPNPARKACSASSKIRRLSACKQQ [R297W], the STK11 functional score is -0.193 ± 0.083.

For MEVVDPQQLGMFTEGELMSVGMDTFIHRIDSTEVIYQPRRKRAKLIGKYLMGDLLGEGSYGKVKEVLDSETLCRRAVKILKKKKLRRIPNGEANVKKEIQLLRRLRHKNVIQLVDVLYNEEKQKMYMVMEYCVCGMQEMLDSVPEKRFPVCQAHGYFCQLIDGLEYLHSQGIVHKDIKPGNLLLTTGGTLKISDLGVAEALHPFAADDTCRTSQGSPAFQPPEIANGLDTFSGFKVDIWSAGVTLYNITTGLYPFEGDNIYKLFENIGKGSYAIPGDCGPPLSDLLKGMLEYEPAKVFSIRQIRQHSWFRKKHPPAEAPVPIPPSPDTKDRWRSMTVVPYLEDLHGADEDEDLFDIEDDIIYTQDFTVPGQVPEEEASHNGQRRGLPKAVCMNGTEAAQLSTKSRAEGRAPNPARKACSASSKIRRLSACKQQ [R297V], the STK11 functional score is -0.053 ± 0.093.

Take MEVVDPQQLGMFTEGELMSVGMDTFIHRIDSTEVIYQPRRKRAKLIGKYLMGDLLGEGSYGKVKEVLDSETLCRRAVKILKKKKLRRIPNGEANVKKEIQLLRRLRHKNVIQLVDVLYNEEKQKMYMVMEYCVCGMQEMLDSVPEKRFPVCQAHGYFCQLIDGLEYLHSQGIVHKDIKPGNLLLTTGGTLKISDLGVAEALHPFAADDTCRTSQGSPAFQPPEIANGLDTFSGFKVDIWSAGVTLYNITTGLYPFEGDNIYKLFENIGKGSYAIPGDCGPPLSDLLKGMLEYEPAKTFSIRQIRQHSWFRKKHPPAEAPVPIPPSPDTKDRWRSMTVVPYLEDLHGADEDEDLFDIEDDIIYTQDFTVPGQVPEEEASHNGQRRGLPKAVCMNGTEAAQLSTKSRAEGRAPNPARKACSASSKIRRLSACKQQ [R297T]: the STK11 functional score was -0.0209 ± 0.12.
